According to publication PMC2118261:

What was measured:
[1] = target: human CD1d loaded with α-galactosylceramide, biotinylated (human) (UniProt P15813); assay: SPR
[2] = target: mouse CD1d loaded with α-galactosylceramide, biotinylated (for SPR) (mouse) (UniProt P11609); assay: SPR
UniProt P11609, sequence (P11609 22-336): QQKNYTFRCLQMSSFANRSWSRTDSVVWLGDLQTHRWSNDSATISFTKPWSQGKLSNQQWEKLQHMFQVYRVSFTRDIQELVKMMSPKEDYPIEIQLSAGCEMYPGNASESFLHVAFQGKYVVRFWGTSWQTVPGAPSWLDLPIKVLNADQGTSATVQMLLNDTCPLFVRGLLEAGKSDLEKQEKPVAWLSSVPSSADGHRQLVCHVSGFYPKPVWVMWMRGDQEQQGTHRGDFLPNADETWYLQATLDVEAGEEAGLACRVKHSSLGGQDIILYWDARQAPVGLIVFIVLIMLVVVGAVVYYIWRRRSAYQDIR

UniProt P15813, sequence (P15813 20-335): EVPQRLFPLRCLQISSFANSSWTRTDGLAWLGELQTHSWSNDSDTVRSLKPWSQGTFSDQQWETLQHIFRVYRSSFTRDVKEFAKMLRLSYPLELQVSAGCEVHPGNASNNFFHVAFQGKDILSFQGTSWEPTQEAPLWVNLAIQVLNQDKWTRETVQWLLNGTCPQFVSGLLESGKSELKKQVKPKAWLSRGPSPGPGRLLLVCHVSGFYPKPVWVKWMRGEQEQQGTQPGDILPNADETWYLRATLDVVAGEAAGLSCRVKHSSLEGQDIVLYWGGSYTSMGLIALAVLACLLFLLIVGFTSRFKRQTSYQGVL

NKT15 TCR (human semi-invariant NKT cell αβ T cell receptor, soluble extracellular domains)
Kd [1]: 10 µM
Kd [2]: 20 µM

NKT15α-chain/NKT15 β-chain engrafted with the LC13 CDR3β-loop (TCR)
fold lower affinity than NKT15 [1]: 5 to 10 fold
fold lower affinity than NKT15 [2]: 5 to 10 fold
